Results reported in patent US20230265421.

Test system: T1, dFrCas9 (Faecalibaculum rodentium)
T1 sequence: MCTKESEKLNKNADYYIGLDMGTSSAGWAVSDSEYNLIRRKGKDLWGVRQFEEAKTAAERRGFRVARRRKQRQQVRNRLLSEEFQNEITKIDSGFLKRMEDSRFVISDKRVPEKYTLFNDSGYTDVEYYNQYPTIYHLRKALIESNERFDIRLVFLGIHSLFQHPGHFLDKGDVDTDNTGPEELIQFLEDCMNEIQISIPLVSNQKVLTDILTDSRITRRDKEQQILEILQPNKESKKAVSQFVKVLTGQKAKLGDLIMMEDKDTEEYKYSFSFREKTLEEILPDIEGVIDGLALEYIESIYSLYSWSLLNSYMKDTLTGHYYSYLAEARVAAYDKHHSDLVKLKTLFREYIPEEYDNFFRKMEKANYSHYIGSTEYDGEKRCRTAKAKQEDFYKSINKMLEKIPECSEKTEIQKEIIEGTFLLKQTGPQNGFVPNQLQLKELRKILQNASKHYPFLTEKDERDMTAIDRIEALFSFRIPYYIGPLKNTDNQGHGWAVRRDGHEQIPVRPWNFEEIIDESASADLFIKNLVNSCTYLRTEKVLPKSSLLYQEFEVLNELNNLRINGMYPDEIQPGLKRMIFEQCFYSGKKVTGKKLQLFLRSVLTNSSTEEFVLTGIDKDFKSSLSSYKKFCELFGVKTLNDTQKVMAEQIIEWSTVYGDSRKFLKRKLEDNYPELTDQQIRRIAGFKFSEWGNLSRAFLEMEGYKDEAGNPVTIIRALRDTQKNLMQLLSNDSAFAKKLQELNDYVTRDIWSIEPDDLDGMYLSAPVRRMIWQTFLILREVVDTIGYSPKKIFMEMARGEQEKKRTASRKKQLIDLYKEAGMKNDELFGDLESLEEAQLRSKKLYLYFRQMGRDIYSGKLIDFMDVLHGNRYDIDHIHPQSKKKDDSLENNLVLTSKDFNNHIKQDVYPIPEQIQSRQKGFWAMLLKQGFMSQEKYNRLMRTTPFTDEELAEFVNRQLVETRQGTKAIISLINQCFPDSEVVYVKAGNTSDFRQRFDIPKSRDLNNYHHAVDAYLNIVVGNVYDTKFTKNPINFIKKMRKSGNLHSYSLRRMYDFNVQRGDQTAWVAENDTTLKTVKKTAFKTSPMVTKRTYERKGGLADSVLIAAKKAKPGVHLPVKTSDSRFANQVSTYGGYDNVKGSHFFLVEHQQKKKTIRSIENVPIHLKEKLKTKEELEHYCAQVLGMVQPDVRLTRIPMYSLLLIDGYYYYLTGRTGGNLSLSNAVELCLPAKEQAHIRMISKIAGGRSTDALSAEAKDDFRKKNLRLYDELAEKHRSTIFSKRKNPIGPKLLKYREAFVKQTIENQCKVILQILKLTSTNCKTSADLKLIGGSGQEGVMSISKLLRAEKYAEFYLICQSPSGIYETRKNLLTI
Assay: cell_activity
Conditions: CRISPRi by binding TATA-box; PAM NNTA

ABCA1 TATA-box sgRNA ; ABCA1 TATA-box was tested. Which activity (% decrease of expression) did it give?
Its activity (% decrease of expression) is 61.7.
